In US20200292536A1:

What was measured:
[1] = target: BCL2 peptide Ac-…-amide (amino acids 41-54 of human BCL2 with linkers) (human); experiment: imaging mass cytometry; peptide 2.50E-07 M in core (second core); Ab 10 ug/ml
[2] = target: BCL2 peptide Ac-…-amide (amino acids 41-54 of human BCL2 with linkers) (human); experiment: imaging mass cytometry; peptide 2.50E-08 M in core; Ab 10 ug/ml
[3] = target: BCL2 peptide Ac-…-amide (amino acids 41-54 of human BCL2 with linkers) (human); experiment: imaging mass cytometry; peptide 2.50E-05 M in core; Ab 5 ug/ml
[4] = target: BCL2 peptide Ac-…-amide (amino acids 41-54 of human BCL2 with linkers) (human); experiment: imaging mass cytometry; peptide 2.50E-04 M in core; Ab 10 ug/ml
[5] = target: BCL2 peptide Ac-…-amide (amino acids 41-54 of human BCL2 with linkers) (human); experiment: imaging mass cytometry; peptide 2.50E-05 M in core (second core); Ab 5 ug/ml
[6] = target: BCL2 peptide Ac-…-amide (amino acids 41-54 of human BCL2 with linkers) (human); experiment: imaging mass cytometry; peptide 2.50E-06 M in core (second core); Ab 5 ug/ml
[7] = target: BCL2 peptide Ac-…-amide (amino acids 41-54 of human BCL2 with linkers) (human); experiment: imaging mass cytometry; peptide 2.50E-06 M in core; Ab 10 ug/ml
[8] = target: Bovine serum albumin (BSA; Ultra Pure) (bovine) (UniProt P02769); experiment: imaging mass cytometry; no peptide (background core); Ab 1 ug/ml
[9] = target: BCL2 peptide Ac-…-amide (amino acids 41-54 of human BCL2 with linkers) (human); experiment: imaging mass cytometry; peptide 2.50E-06 M in core; Ab 5 ug/ml
[10] = target: Bovine serum albumin (BSA; Ultra Pure) (bovine) (UniProt P02769); experiment: imaging mass cytometry; no peptide (second background core); Ab 5 ug/ml
[11] = target: BCL2 peptide Ac-…-amide (amino acids 41-54 of human BCL2 with linkers) (human); experiment: imaging mass cytometry; peptide 2.50E-07 M in core; Ab 10 ug/ml
[12] = target: BCL2 peptide Ac-…-amide (amino acids 41-54 of human BCL2 with linkers) (human); experiment: imaging mass cytometry; peptide 2.50E-07 M in core; Ab 5 ug/ml
[13] = target: BCL2 peptide Ac-…-amide (amino acids 41-54 of human BCL2 with linkers) (human); experiment: imaging mass cytometry; peptide 2.50E-04 M in core (second core); Ab 10 ug/ml
[14] = target: BCL2 peptide Ac-…-amide (amino acids 41-54 of human BCL2 with linkers) (human); experiment: imaging mass cytometry; peptide 2.50E-06 M in core
[15] = target: BCL2 peptide Ac-…-amide (amino acids 41-54 of human BCL2 with linkers) (human); experiment: imaging mass cytometry; peptide 2.50E-04 M in core; Ab 1 ug/ml
[16] = target: Bovine serum albumin (BSA; Ultra Pure) (bovine) (UniProt P02769); experiment: imaging mass cytometry; no peptide (second background core); Ab 10 ug/ml
[17] = target: Bovine serum albumin (BSA; Ultra Pure) (bovine) (UniProt P02769); experiment: imaging mass cytometry; no peptide (background cores)
[18] = target: BCL2 peptide Ac-…-amide (amino acids 41-54 of human BCL2 with linkers) (human); experiment: imaging mass cytometry; peptide 2.50E-04 M in core
[19] = target: BCL2 peptide Ac-…-amide (amino acids 41-54 of human BCL2 with linkers) (human); experiment: imaging mass cytometry; peptide 2.50E-05 M in core; Ab 1 ug/ml
[20] = target: BCL2 peptide Ac-…-amide (amino acids 41-54 of human BCL2 with linkers) (human); experiment: imaging mass cytometry; peptide 2.50E-04 M in core (second core); Ab 5 ug/ml
[21] = target: BCL2 peptide Ac-…-amide (amino acids 41-54 of human BCL2 with linkers) (human); experiment: imaging mass cytometry; peptide 2.50E-08 M in core (second core); Ab 1 ug/ml
[22] = target: BCL2 peptide Ac-…-amide (amino acids 41-54 of human BCL2 with linkers) (human); experiment: imaging mass cytometry; peptide 2.50E-05 M in core; Ab 10 ug/ml
[23] = target: BCL2 peptide Ac-…-amide (amino acids 41-54 of human BCL2 with linkers) (human); experiment: imaging mass cytometry; peptide 2.50E-07 M in core (second core); Ab 5 ug/ml
[24] = target: BCL2 peptide Ac-…-amide (amino acids 41-54 of human BCL2 with linkers) (human); experiment: imaging mass cytometry; peptide 2.50E-05 M in core
[25] = target: BCL2 peptide Ac-…-amide (amino acids 41-54 of human BCL2 with linkers) (human); experiment: imaging mass cytometry; peptide 2.50E-05 M in core (second core); Ab 10 ug/ml
[26] = target: Bovine serum albumin (BSA; Ultra Pure) (bovine) (UniProt P02769); experiment: imaging mass cytometry; no peptide (background core); Ab 10 ug/ml
[27] = target: BCL2 peptide Ac-…-amide (amino acids 41-54 of human BCL2 with linkers) (human); experiment: imaging mass cytometry; peptide 2.50E-04 M in core; Ab 5 ug/ml
[28] = target: BCL2 peptide Ac-…-amide (amino acids 41-54 of human BCL2 with linkers) (human); experiment: imaging mass cytometry; peptide 2.50E-08 M in core; Ab 1 ug/ml
[29] = target: BCL2 peptide Ac-…-amide (amino acids 41-54 of human BCL2 with linkers) (human); experiment: imaging mass cytometry; peptide 2.50E-06 M in core (second core); Ab 10 ug/ml
[30] = target: Bovine serum albumin (BSA; Ultra Pure) (bovine) (UniProt P02769); experiment: imaging mass cytometry; no peptide (background core); Ab 5 ug/ml
[31] = target: BCL2 peptide Ac-…-amide (amino acids 41-54 of human BCL2 with linkers) (human); experiment: imaging mass cytometry; peptide 2.50E-05 M in core (second core); Ab 1 ug/ml

UniProt P02769, sequence (P02769 25-607 limits assumed): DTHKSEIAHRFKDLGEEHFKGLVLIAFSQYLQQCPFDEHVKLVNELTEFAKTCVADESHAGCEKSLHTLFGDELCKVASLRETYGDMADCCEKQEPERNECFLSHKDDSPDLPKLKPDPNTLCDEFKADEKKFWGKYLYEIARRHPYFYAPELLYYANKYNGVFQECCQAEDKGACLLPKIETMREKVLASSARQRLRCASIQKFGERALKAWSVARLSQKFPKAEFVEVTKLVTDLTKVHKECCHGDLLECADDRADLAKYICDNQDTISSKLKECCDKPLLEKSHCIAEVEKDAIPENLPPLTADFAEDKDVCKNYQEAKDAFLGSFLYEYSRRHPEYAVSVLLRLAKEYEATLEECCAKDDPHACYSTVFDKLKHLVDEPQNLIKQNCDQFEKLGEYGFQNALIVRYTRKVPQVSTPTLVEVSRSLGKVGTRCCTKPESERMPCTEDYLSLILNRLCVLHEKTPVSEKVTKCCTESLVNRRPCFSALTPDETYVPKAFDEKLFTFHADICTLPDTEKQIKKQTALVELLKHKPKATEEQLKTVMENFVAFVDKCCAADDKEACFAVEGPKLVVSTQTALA
BCL2 peptide Ac-…-amide (amino acids 41-54 of human BCL2 with linkers) (human), sequence (peptide, as listed by the source): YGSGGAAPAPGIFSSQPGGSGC

Substance: Fluidigm EPR17509-^146Nd antibody
- Integrated Ion counts (per 150 micron square ROI) [1]: 1760 ion counts
- Integrated Ion counts (per 150 micron square ROI) [2]: 1230 ion counts
- Integrated Ion counts (per 150 micron square ROI) [3]: 16600 ion counts
- Integrated Ion counts (per 150 micron square ROI) [4]: 87400 ion counts
- Integrated Ion counts (per 150 micron square ROI) [5]: 15100 ion counts
- Integrated Ion counts (per 150 micron square ROI) [6]: 3900 ion counts
- Integrated Ion counts (per 150 micron square ROI) [7]: 789000 ion counts
- Integrated Ion counts (per 150 micron square ROI) [8]: 1350 ion counts
- Integrated Ion counts (per 150 micron square ROI) [9]: 4290 ion counts
- Integrated Ion counts (per 150 micron square ROI) [10]: 2380 ion counts
- Integrated Ion counts (per 150 micron square ROI) [11]: 1550 ion counts
- Integrated Ion counts (per 150 micron square ROI) [12]: 1370 ion counts
- Integrated Ion counts (per 150 micron square ROI) [13]: 880000 ion counts
- Average Ion count [14]: 6400 ion counts
- Ion count above background [14]: 522 ion counts
- Moles ^146Nd Ab detected per ROI [14]: 2.93e-18 mol
- ^146Nd Ab/peptide [14]: 1.3%
- Integrated Ion counts (per 150 micron square ROI) [15]: 59300 ion counts
- Integrated Ion counts (per 150 micron square ROI) [16]: 1160 ion counts
- Average Ion count [17]: 1280 ion counts
- Average Ion count [18]: 58300 ion counts
- Ion count above background [18]: 56900 ion counts
- Moles ^146Nd Ab detected per ROI [18]: 3.2e-17 mol
- ^146Nd Ab/peptide [18]: 0.14%
- Integrated Ion counts (per 150 micron square ROI) [19]: 32400 ion counts
- Integrated Ion counts (per 150 micron square ROI) [20]: 37400 ion counts
- Integrated Ion counts (per 150 micron square ROI) [21]: 1410 ion counts
- Integrated Ion counts (per 150 micron square ROI) [22]: 39300 ion counts
- Integrated Ion counts (per 150 micron square ROI) [23]: 1400 ion counts
- Average Ion count [24]: 32600 ion counts
- Ion count above background [24]: 31500 ion counts
- Moles ^146Nd Ab detected per ROI [24]: 1.76e-17 mol
- ^146Nd Ab/peptide [24]: 0.78%
- Integrated Ion counts (per 150 micron square ROI) [25]: 48700 ion counts
- Integrated Ion counts (per 150 micron square ROI) [26]: 979 ion counts
- Integrated Ion counts (per 150 micron square ROI) [27]: 35300 ion counts
- Integrated Ion counts (per 150 micron square ROI) [28]: 1450 ion counts
- Integrated Ion counts (per 150 micron square ROI) [29]: 3910 ion counts
- Integrated Ion counts (per 150 micron square ROI) [30]: 1080 ion counts
- Integrated Ion counts (per 150 micron square ROI) [31]: 43900 ion counts
